We go through two molecules from patent US20190002563A1 (MacroGenics, published 2019).

Experiment [1] has as its target T1, human B7-H3 on cells (human, UniProt Q5ZPR3 29-534).
T1 sequence (looked up): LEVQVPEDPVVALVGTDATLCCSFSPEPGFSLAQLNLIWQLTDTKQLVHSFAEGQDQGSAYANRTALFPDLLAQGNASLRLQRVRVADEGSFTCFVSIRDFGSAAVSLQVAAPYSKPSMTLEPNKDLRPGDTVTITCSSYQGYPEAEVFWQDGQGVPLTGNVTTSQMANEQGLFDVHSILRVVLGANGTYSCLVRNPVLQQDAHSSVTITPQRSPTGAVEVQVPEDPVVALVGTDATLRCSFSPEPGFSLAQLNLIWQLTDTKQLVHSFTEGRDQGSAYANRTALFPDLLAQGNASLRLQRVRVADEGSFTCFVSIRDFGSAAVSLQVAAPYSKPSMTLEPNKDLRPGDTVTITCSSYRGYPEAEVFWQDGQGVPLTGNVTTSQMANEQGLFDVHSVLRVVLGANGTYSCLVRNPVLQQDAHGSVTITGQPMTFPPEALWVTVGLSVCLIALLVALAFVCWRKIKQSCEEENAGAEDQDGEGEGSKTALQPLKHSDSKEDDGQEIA
Put plainly: cell-based or functional assay.

For another experiment, the target named is T2, Cynomolgus B7-H3 (cynomolgus monkey).
T2 chain: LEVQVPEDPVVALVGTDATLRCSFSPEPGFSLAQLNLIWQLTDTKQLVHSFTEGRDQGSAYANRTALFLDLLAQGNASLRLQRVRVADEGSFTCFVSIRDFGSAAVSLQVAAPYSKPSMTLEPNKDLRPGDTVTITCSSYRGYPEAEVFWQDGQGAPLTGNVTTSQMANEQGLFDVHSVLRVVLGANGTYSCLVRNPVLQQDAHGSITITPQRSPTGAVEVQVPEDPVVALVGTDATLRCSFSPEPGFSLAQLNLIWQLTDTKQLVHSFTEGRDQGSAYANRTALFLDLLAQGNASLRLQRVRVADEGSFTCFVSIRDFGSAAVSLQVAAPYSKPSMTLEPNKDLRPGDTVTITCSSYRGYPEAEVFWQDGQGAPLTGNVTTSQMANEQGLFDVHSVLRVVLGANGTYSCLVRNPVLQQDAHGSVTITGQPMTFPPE
Briefly: SPR (BIAcore). A general note: SPR reads the build-up and loss of mass on a sensor chip optically.

Experiment [2] deals with T1, human B7-H3 on cells. Briefly: cell-based or functional assay. The source holds these as a separate data set.
Experiment [3] deals with T1, human B7-H3 on cells. Briefly: cell-based or functional assay. This is another data set of the same source.

B1: DART-B (bispecific antibody)
chain 1: DIQMTQSPSSLSASVGDRVTITCRASQDISNYLNWYQQKPGKAPKLLIYYTSRLHSGVPSRFSGSGSGTDFTLTISSLQPEDIATYYCQQGNTLPPTFGGGTKLEIKGGGSGGGGEVQLVESGGGLVQPGGSLRLSCAASGFTFSTYAMNWVRQAPGKGLEWVGRIRSKYNNYATYYADSVKDRFTISRDDSKNSLYLQMNSLKTEDTAVYYCVRHGNFGNSYVSWFAYWGQGTLVTVSSGGCGGGEVAALEKEVAALEKEVAALEKEVAALEKGGGDKTHTCPPCPAPEAAGGPSVFLFPPKPKDTLMISRTPEVTCVVVDVSHEDPEVKFNWYVDGVEVHNAKTKPREEQYNSTYRVVSVLTVLHQDWLNGKEYKCKVSNKALPAPIEKTISKAKGQPREPQVYTLPPSREEMTKNQVSLWCLVKGFYPSDIAVEWESNGQPENNYKTTPPVLDSDGSFFLYSKLTVDKSRWQQGNVFSCSVMHEALHNHYTQKSLSLSPGK
chain 2: QAVVTQEPSLTVSPGGTVTLTCRSSTGAVTTSNYANWVQQKPGQAPRGLIGGTNKRAPWTPARFSGSLLGGKAALTITGAQAEDEADYYCALWYSNLWVFGGGTKLTVLGGGGSGGGGQVQLVQSGAEVKKPGASVKVSCKASGYTFTSYWMQWVRQAPGQGLEWMGTIYPGDGDTRYTQKFKGRVTITADKSTSTAYMELSSLRSEDTAVYYCARRGIPRLWYFDVWGQGTTVTVSSGGCGGGKVAALKEKVAALKEKVAALKEKVAALKE
chain 3: not shown
notes: Three-chain Fc diabody; also called B7-H3×CD3 bispecific monovalent Fc diabody
As for B1, the “potency of redirected cell killing against DART-A (target cell lines including A498, THP-1 and DU145)” value with human B7-H3 on cells [1] is roughly 6 fold.

B2: DART-A (bispecific antibody)
chain 1: DIQLTQSPSFLSASVGDRVTITCKASQNVDTNVAWYQQKPGKAPKALIYSASYRYSGVPSRFSGSGSGTDFTLTISSLQPEDFATYYCQQYNNYPFTFGQGTKLEIKGGGSGGGGEVQLVESGGGLVQPGGSLRLSCAASGFTFSTYAMNWVRQAPGKGLEWVGRIRSKYNNYATYYADSVKDRFTISRDDSKNSLYLQMNSLKTEDTAVYYCVRHGNFGNSYVSWFAYWGQGTLVTVSSGGCGGGEVAALEKEVAALEKEVAALEKEVAALEKGGGDKTHTCPPCPAPEAAGGPSVFLFPPKPKDTLMISRTPEVTCVVVDVSHEDPEVKFNWYVDGVEVHNAKTKPREEQYNSTYRVVSVLTVLHQDWLNGKEYKCKVSNKALPAPIEKTISKAKGQPREPQVYTLPPSREEMTKNQVSLWCLVKGFYPSDIAVEWESNGQPENNYKTTPPVLDSDGSFFLYSKLTVDKSRWQQGNVFSCSVMHEALHNHYTQKSLSLSPGK
chain 2: QAVVTQEPSLTVSPGGTVTLTCRSSTGAVTTSNYANWVQQKPGQAPRGLIGGTNKRAPWTPARFSGSLLGGKAALTITGAQAEDEADYYCALWYSNLWVFGGGTKLTVLGGGGSGGGGEVQLVESGGGLVQPGGSLRLSCAASGFTFSSFGMHWVRQAPGKGLEWVAYISSDSSAIYYADTVKGRFTISRDNAKNSLYLQMNSLRDEDTAVYYCGRGRENIYYGSRLDYWGQGTTVTVSSGGCGGGKVAALKEKVAALKEKVAALKEKVAALKE
chain 3: not shown
notes: Three-chain Fc diabody, one B7-H3 site and one CD3 site; chains are disulfide bonded; also called B7-H3×CD3 bispecific monovalent Fc diabody
As usually defined, the Kd is the equilibrium constant for the complex coming apart. For orientation: koff means a measure of how fast the partners let go of each other. Read a high koff as a short-lived complex. The kon is the second-order rate constant of association. High values mean faster complex formation, low ones slower complex formation. On to B2, for which, in the experiment with Cynomolgus B7-H3, the Kd is 30.2 nM, the koff came out at 0.0051 s⁻¹ and the kon came to 170000 M⁻¹ s⁻¹. For the same molecule, in the experiment with human B7-H3 on cells [2], the “EC50 of redirected killing, 22Rv1 target cells, human T cells, E:T 5:1” value is 212 ng/mL; the “EC50 of redirected killing, A375 target cells, human T cells, E:T 5:1” value was determined as 97 ng/mL; the “EC50 of redirected killing, A498 target cells, human T cells, E:T 5:1” value amounted to 64 ng/mL; the “EC50 of redirected killing, BxPC-3 target cells, human T cells, E:T 5:1” value stood at 196 ng/mL. Further, in the experiment with human B7-H3 on cells [2], the “EC50 of redirected killing, DU145 target cells, human T cells, E:T 5:1” value amounted to 84 ng/mL; the “EC50 of redirected killing, Detroit562 target cells, human T cells, E:T 5:1” value was found to be 1280 ng/mL; the “EC50 of redirected killing, JIMT-1/Luc target cells, human T cells, E:T 5:1” value worked out at 47 ng/mL; the “EC50 of redirected killing, SKMES-1 target cells, human T cells, E:T 5:1” value is 319 ng/mL. In addition, the “EC50 of redirected killing, U87 target cells, human T cells, E:T 5:1” value with human B7-H3 on cells [2] is 99 ng/mL. Also, in the experiment with human B7-H3 on cells [3], the “EC50 of redirected killing, A375 target cells, E:T 1:1 (LDH assay)” value amounted to 352 ng/mL; the “EC50 of redirected killing, A375 target cells, E:T 5:1 (LDH assay)” value turned out to be 243 ng/mL; the “EC50 of redirected killing, A375 target cells, E:T 10:1 (LDH assay)” value was 166 ng/mL; the “EC50 of redirected killing, A498 target cells, E:T 1:1 (LDH assay)” value is 128 ng/mL. In addition, in the experiment with human B7-H3 on cells [3], the “EC50 of redirected killing, A498 target cells, E:T 5:1 (LDH assay)” value amounted to 42.5 ng/mL and the “EC50 of redirected killing, A498 target cells, E:T 10:1 (LDH assay)” value came to 27.2 ng/mL.
